Experiments:
Format in all cases: biochemical, Quillaja saponaria
[1] = Experiment 6-1: screening of rhamnosidases for derhamnosylation of saponins in treated bark extract (2%), QS-17 2296 to QS-18 2150 (PAR %); details: TBE 2%, pH 7.5, 30 degC, 18 h; TIC peak area ratio percent of rhamnosylated starting saponin to derhamnosylated product, LCMS/MS; negative controls 4.876, 5.225
[2] = Experiment 6-1: screening of rhamnosidases for derhamnosylation of saponins in treated bark extract (2%), desglucosyl-QS-17 2134 to QS-21 1988 (PAR %); details: TBE 2%, pH 7.5, 30 degC, 18 h; TIC peak area ratio percent, LCMS/MS; negative controls 2.719, 2.158
[3] = Experiment 6-1: screening of rhamnosidases for derhamnosylation of saponins in treated bark extract (2%), QS-17 2310 to QS-18 2164 (PAR %); details: TBE 2%, pH 7.5, 30 degC, 18 h; TIC peak area ratio percent, LCMS/MS; negative controls 3.061, 2.429
[4] = Experiment 6-1: specificity of rhamnosidases towards other rhamnose residues (C3 saccharide rhamnose, C28 saccharide rhamnose); details: TBE 2%, pH 7.5, 30 degC, 18 h; LCMS/MS; negative controls 0.18, 0.17

| Molecule | QS-17 (PAR %) [1] [%] | Peak75 (PAR %) [2] [%] | Peak57 (PAR %) [3] [%] | ratio PP/QS-21 [4] |
| --- | --- | --- | --- | --- |
| 1051 (protein, Subdoligranulum variabile) MDGGPLFLSWQCTGGLRQTAYEIHLTADDALVWESGKVATQSMHADAPAVEGARVRGSWKVRLWDENNCPGPWSGARFETGLSTGEWQGLWVAPETAPLDIPGDDAINAFARPNWERKQAEKEAAGKGAAEPYQPHRPASYLRKTFTAPSGRGRLYITAKGLYVAWLNGVRVGDMVLAPGSFTADKHLGAQTYDVTALLREGENELLIALGDGWYRSTSGVDGDRNLFGDTLGVLFQLEVDGKVVCVSDDTMQATQQGPIRQNDLQQGEVYDARLEGLLSGWHEVQTYRDALPVTGMNTVPIREREAFPGRLFTAPNGETVLDFGQNIAGYVEMTLTAHAGQKVLLTCGETLDENGNFTQENFQDRSRHNEGGTAQMLELICKEGVNHWKPSFTIMGFQYAKVETDADLTGAVFTAHAVYSDMAVTGSFTCGNKAVNRLVANSIWSQKGNFCDIPTDCPTRERAGWTGDMGVFIETGLTLMDCYPVVAKWLKECRLNQYPDGRMANIAPPNSRPGYMTPMLCMSAGWGDAAILVPYALYKRTGDRRILADNYEMMQRWYAFLLGRAQQTTEEQQSGEYAKYTVLNGLDYGEWCEPGVTPMQAMANPRKSVGTAYLAYSGRLLAEIAAVLGRQEEADAYRATADKAVKAYRAAFTEDGVIHSDRQCEYVRAIAFALLGEEESRAAATTLNQMVVDNGCHLNTGFLSTPFLCGVLAQYGYIDTAYRLLLQPEAPGWLYEVNKGANTVWETWTGIDAEGKPHESLNHYSYGAICGWLFGGVCGIHFTDGQLTIAPTPHKALGYAKAVYDSPAGRIESGWRYEGDTVTYEFTIPTNITAHIHLPDGRTRMLSAGTHRL | 5.289 | 2.426 | 2.918 | 0.16 |
| 1030 (protein, listed as Lactobacillus crispatus) MKLVRIEVNHMETPIGFNLDNHLHLVGFLDGPVTSKLQRKLIIKAHDKEIVTFDWENADNLIFDFPINLTARTRYEVEMSVKNDREMSTATTYFETGQIDETLKGKWIGTEHKDLHSIILYKKFTTKDVKKARLYISGLGLFEAYLDGNKIGNEFLTPGFTDYNYDLQIESYDLTTELLKSGEHTLAIMLGDGWYRGKLGLKVHGGQPNNYGDQLMAIADLRINDDQQIIVTDKSWQVTTSPITHSGIYYGEDLDDNRQLNELANAIELTSPTKHLVDRQSLPIQRHEQFSVKEIIKTPSGATVLDFGQNMAGWLEFKNTIPKGEKVSIEFGEIMLDGEFYRDNLRSARAQFTYVSDGKEKWVRPHFTYFGFRYVKLNDFEGEIDPNNFRAVALYSNMIETGEIITNNSDVNRLFENVKWGQKSNFIDIPTDCPQRDERLGWTGDAAIFSKTASYNMDTYQFLKKYAYDIAVEQSKNNGFVPLYVPAVDTKDGGKAVWSDAATIIPWIAYKRTGDLAILRQNIGAMMSWVDWIHDRAVSHGQEYLWLGDDQLGDWLALDTEDIMKLKGKTPDDLIASAYYYYSAKLVSQSAETLNMKHEKQYYGQLAKLIKHAFINHFFTKDGLSIADTQTGLALCLSFKLYPANAKDNLINKLVEKVEVNQNHLNTGFVGTPLLLPALTDNGQQDLALRLFLNTDFPSWLFEVKNGATTIWERWNSVDSEGHIAQNGMNSLNHYSSGAVMEWAYEDLLGLKQNGNDAVFKPMLTAKLNQISGQIALPTGIVKVAWHIKSSKLIHLEMDIPYGSHLKLILPKHEQDIPTIFKSGHYELDVEVINPIVEAFDVHTPLAEYRNQTSLTKKLSELVPFWGFLAMPGNMDHFAKYSLLQLSREMRGIGFKPFTQEDIEKINQLFKEYHFKGAEK | 5.315 | 2.127 | 3.621 | 0.17 |
| 1006 (protein, listed as Geobacillus sp.) MAAIKATDLRTEGILNPFGLDAERPRLSWSFGQPAGAGSGQSAYRIAVASSEERLKLGEPDVWDSGIVRSCEHVSIPYEGASLMPRRRYYWHVTAWDGQGQPAVSKAAWWETGLLAEAKWSERWIGDAAEAADRGPMIQLRKSFEVKKPVARARAYVTGLGHYELRLNGAKVGDRQLEPGWTNYDKTVLYSVYDVTPGLRQGENAVGVLLGNGFYRVAGGRYAKFKGSFGNPKCLAELVIEYADGTAETIVTDGTWSLSDSPLTFSCIYGGEDYDAGLERTGWDGPGFVEDGDWRRACELEPPPGKLTAQSSPPLAITKRLPARSVSEPRRGVYVYDLGQNFSGWPCIRVSGPNGTRVKLKPAELLTEEGLANQKYSGSPYELNYVLKGEGIEEWHPRFTYYGFRYVQVEGAAPAGEGVEESDLPVLHGLEGHMIGPDVEDAGGFRCSDPLLNRIHEIINWAILSNMKSVFTDCPHREKLGWLEQLHLMGPSVMFNYECEALLEKIMRDMSDAQLPNGMVPTTAPEYVVFEEPWHMFRDAAAWGGSYILLAWEMLRRYGSVGTLERHYEGMGRYVHYLTEASDGFILRGGLGDWYDIGPKGPGFAQNTSVALVETAIFFGLARALGEIALVLGKAEDASAHSRLSESIRTAFHSAFYDTANAMYAEGSDTAIAMPLAIGLAPEELRGVLLDRLVRNIGERGWQTTAGDVGHRYVLSALASGGRSDVVGKMARNPHAPGYAYQVAHGATSLTEAWDGPTVGKSQNHFMLGHLEEWLYASLAGLDYRYRPEVGRYLVKAKPTVVQGVEWAEAWQQLRSGRASVRWELGPSNQMTVRVDIPANSEGLIRIPSSPDTPVLASGPDVAYEGHEDGHAVYRSGPGSYCFTFAANHRTTEMERERM | 5.339 | 2.645 | 3.237 | 0.18 |
| 1013 (protein, listed as Chloroflexus aurantiacus) MSYEQLSTSQSQVSRLIVRVEHYQSTLGIGNPCPRLSWIIETNATNWLQTAYEIECYTKDGRVRGRTGWIHSPESVLVPWPFEPLTSREQVLVRVRVRDNKGDISPWSEMLPIEAGLLKVGDWSARFITPDWDDDILKPQPCPMLRHEFRVDNDVIQARLYITSLGVYEAQINGVVVGDQVLAPGWTVYDRRLRYQTFDVTMHLREGINAIGVILGDGWFRGRLGFGGGRRNIYGNRLAVLAQLEITYRDGSTQQVCTDQTWRSTTGPILASDIYDGEIYDARLELPNWSKPGFADHQWSGVRLLEWDFSTLVAPISPPIRRIEMVLPVAIFSSPSGRTIVDFGQNLVGRVRLTVSGPPGQMITVRHAEVLEGGELSTRPLRFAAATDRYILRGDGTEVWEPRFTFHGFRYAEIDGWPGELRTTDIVAVVIHSDMERIGWFTCSDQLLNRFHENVVWSMRGNFLDVPTDCPQRDERLGWTGDIQVFAPTAVFLYDVAGLLQSWLIDLAIEQEKLGGAVPHVVPNVLGPSAAGAAAWGDAATVVPWVLFQRYGDKRVLETQYKSMRSWVDYIATKAGHTYLWDRGFQFGDWLDPTAPPDKPGQARTDKAIVASAYFIFSATLVAKAAHVLGYDADADFYADLAHKARFAFAKEYITPAGRLMCDTETAYALALVFDLFPTDTQRRYAGERLAALVRDSGYHIRTGFVGTPLICDALCSVGHCRVAYRLLMQRECPSWLYPVTMGATTIWERWDSMLPDGSINPGEMTSFNHYALGAVADWMHRTIGGLIPVEPGYRRIEFRPQPGGEIVYARVSHRTPYGLAECFWRIEEGVFYLRVVVPPNTTAQVFLPGRDDQPLDVGSGIWQWSIPCQDTATRGSYTVDDLVDEIIDDEVAREAVNQVLSQVDAWRLFGNLLLNERSASLREAIQALPNSEIVIERLNALLTRIPKKDGI | 5.272 | 2.388 | 2.576 | 0.17 |
| 1014 (protein, listed as Thermoclostridium stercorarium) MMRVYNLKTNRIKNPMGFVINKPKLSWLVESDTAKHQVAAQVEISADINFENIIFDSGKRTDIDSISYSPQVELKPRTRYYWRVRVWGDDGSEAVSEAAWFETSKMDEPWKAKWITPDFDPSVHPVVFTDFSIERDVADARAYVCGLGLYEMSVNGEKTGDEYLAPGLVAYDKWIPYQTYDITSQLKKGINTAEFLLGNGWYKGRYGLNRKQPFRYGNEFALICEIHITYQDGTADVIYTDTSWKARKSKVIDSGIYDGEIYDDTFCDDAVYPVRIADLDVNKLEPRRSPGIKIKERIKPAEIIRTPEGETVIDMGQNMVGWLEFTNRAPKGAEIMLQFGEVLQDGNFYRDNLRTAKCEFHYISDGKVKKVRPHFTFYGFRYVKLTKWEGEVNPEDFTGLVLYSDLERTGNITTDNSLVNRLFLNALWSQKGNFLDVPTDCPQRDERMGWTGDAQVFSGAAAFNMDVFAFFGKYLYDLKQEQKARGGNVPVVVPAHDVKQNGACGWGDAAVIIPWNMYLHYGDVSILEQQYKSMKGWVDYIKSKDDAAGGRRLWLNDFHYGDCVSLDVEDPFNRFGGTEHAYLASAFYSYSAGIVSKAAKILNKKEDAEYYRKLSEEVKNAIRKEYFTPTGRLAVNTQTAYVIALYMDLVPDEWKERVAFELRKKLKETKYHLRTGFLGTPYLCRVLSEYGSNDIAYRLLTNTDYPGWLYPVTMGATTIWERWNSMLPDGKVSDTGMNSFNHYSYGSIVEWIYRNAAGIQPVEDAPGFRRFRLKPQPHYLLKSLDAEFLSPAEKIISRWNINENGSVSFYFRIPFNTTAELVLPDTEVQDWKEFMSLNVVNILILTCLKDLTRKCTEQILQCGKFMKMRGQKKL | 5.309 | 2.741 | 3.359 | 0.18 |
| 1026 (protein, listed as Pseudarthrobacter chlorophenolicus) MTAPARLRAEHLREAMGLAVREPRLSWTPPAATAGQTAYRIMADNGWDTGRIASAESGGIAYGGPALDSRSRFDWRVRTWNVDSDGTETASDWSESMPVELGLLHPSDWTGQWISPGEEAVSPPGERPGYALTRTFTLPAAPDKARAYATAHGIYELFINGQRVGDQQLTPGSTSYNTTLQVQAYDVTALLTAGLNTIRAVLTDGWYRGTFGYTRDADMYGTHTAFLAQLELESEAGRQVIGTDPSWLVSATEVISADLMAGQRVDFRAYDTGSAPSAGKAPGVRAAVVRPGSFGALTGPLAPPTRVTEELAPVSITRLRNGHQVVDFGQNIHGWVRLAALGGPGETVTLEYGEALGRDGDVTRDHLRPHDFRVPGAFLDAGQVDTVTASGAPGEVFEPRHTSHGFQFVSVRGLATDLRPRDVTACLVRTDLERIGTFHCSDERLNKLHGIVEWSFLGNSCEVPTDCPQREKAGWTGDWQLFVPTAAYLYDVTGFTRKWLRDVRADQWDNGVIANISPSPGPAITSAEFMGFTNGSSGWGDAIVMVPWEAYLATGDASILAENWDAMNRWLGFVRTTAETRRHAARATQAPVPADHEKYLWDTGFHFGEWMEPDGPGPDLFASRTADNGIVATAYYRHTTDLMARIARALGLAAEAADLARLSDAIRDAWATEYLDESGRVTVASQANCVRALAFQLAGTEHRAAVTTQLVELIRDAGTHLGTGFLATPYLLPVLADHGHLGLAYELLMQDSEPSWLAMVDRGATTVWELWNGLDAGGAPHQSLNHYSKGAVVSFLHRYTAGLRQAPGSAGWNRIIIEPRPGAGLTSAATSHQGPHGPITVAWTLSTDALGPDEMTADGVLTLTADIPSGTTAEILLPGQPAAVVGPGHHVFSAATGGDTAHPELMRSTL | 5.271 | 2.501 | 2.755 | 0.17 |

Source: patent US20240026407A1, “MODIFICATION OF SAPONINS” (GLAXOSMITHKLINE BIOLOGICALS SA, priority 2020, published 2024)
